The text below walks through data of paper doi:10.1101/2022.05.31.494188.

For this experiment, the target named is Recombinant envelope glycoprotein gp120 from HIV-1 (CM235) (HIV-1 (CM235)). Briefly: ELISA.
In the case of “Avaren-Fc produced in wild-type N. benthamiana (AvFc^WT) (Fc fusion)”, the EC50 is 0.051 nM.
For “Aglycosylated Avaren-Fc variant (AvFc^Δgly), N200Q (Fc fusion)”, the EC50 was 0.061 nM.
The value for “Avaren-Fc produced in glycoengineered ΔXylT/ΔFucT N. benthamiana (AvFc^ΔXF) (Fc fusion)” was 0.048 nM.
